The target in experiment [1] is T1, SUMO-tagged WIPI3^Δ (human WIPI3 residues 8–344 without residues 264–281) (human, UniProt Q5MNZ6 8-344, without residues 264–281).
T1 construct: WIPI3, human, residues 8–344 with residues 264–281 removed; the WIPI3(75–80) region is retained; also called SUMO-WIPI3^Δ; loop-truncated WIPI3; source: E. coli BL21 (DE3), purified (Ni-NTA, Superdex 200); not shown: SUMO, N-terminal, kept
In words: SEC; purified proteins alone and mixed, Superdex 200 Increase 10/300 GL or Superdex 75 10/300 GL on an AKTA FPLC; mixture profile compared with the theoretical sum; fractions checked by SDS-PAGE. To be noted: both partners purified. For orientation: In gel filtration, larger molecules generally elute earlier.

Another experiment addresses T2, GST-tagged WIPI3Δ (human, UniProt Q5MNZ6 8-344, without residues 264–281).
T2 construct: WIPI3, human, residues 8–344 with residues 264–281 removed; also called GST-WIPI3Δ; source: E. coli BL21 (DE3), purified (Ni-NTA, Superdex 200); not shown: GST, N-terminal, kept
Briefly: SEC; competition: a pre-formed complex incubated with an increasing molar ratio of the competitor, then SEC; fractions analysed by SDS-PAGE with Coomassie staining. The conditions noted are these: both partners purified.

T1 sequence (Q5MNZ6 other isoform, or with tags, fused parts or gaps without residues 264–281 | without residues 264–281 | mutant): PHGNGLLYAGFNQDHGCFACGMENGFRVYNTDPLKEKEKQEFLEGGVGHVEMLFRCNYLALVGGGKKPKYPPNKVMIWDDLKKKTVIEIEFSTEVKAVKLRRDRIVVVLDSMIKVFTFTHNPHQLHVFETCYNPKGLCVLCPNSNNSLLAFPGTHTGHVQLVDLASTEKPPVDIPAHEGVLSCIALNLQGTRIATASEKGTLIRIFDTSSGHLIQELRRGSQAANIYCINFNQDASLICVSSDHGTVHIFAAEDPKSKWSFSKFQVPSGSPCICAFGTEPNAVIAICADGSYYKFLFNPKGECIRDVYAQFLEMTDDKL
T2 sequence (Q5MNZ6 other isoform, or with tags, fused parts or gaps without residues 264–281 | without residues 264–281 | mutant): as above

B1: ATG16L1(124–197) (domain or fragment, human, UniProt Q676U5 124-197, looked up)
chain: MQMNEAKIAECLQTISDLETECLDLRTKLCDLERANQTLKDEYDALQITFTALEGKLRKTTEENQELVTRWMAE
notes: source: E. coli BL21 (DE3), purified (Ni-NTA, Superdex 200)
B1: the binding result in experiment [1] is on record as “binds”.

B2: ATG16L1(78–247) (domain or fragment, human, UniProt Q676U5 78-247, looked up)
chain: NDNQLQEMAQLRIKHQEELTELHKKRGELAQLVIDLNNQMQRKDREMQMNEAKIAECLQTISDLETECLDLRTKLCDLERANQTLKDEYDALQITFTALEGKLRKTTEENQELVTRWMAEKAQEANRLNAENEKDSRRRQARLQKELAEAAKEPLPVEQDDDIEVIVDET
notes: Legends name it without Trx (while ATG2A is named Trx-ATG2A), so the tag may have been cleaved; also called central region of ATG16L1; source: E. coli BL21 (DE3), purified (Ni-NTA, Superdex 200)
In the case of B2, the binding result in experiment [1] is “binds”.

B3: ATG16L1(78–206) (domain or fragment, human, UniProt Q676U5 78-206, looked up)
chain: NDNQLQEMAQLRIKHQEELTELHKKRGELAQLVIDLNNQMQRKDREMQMNEAKIAECLQTISDLETECLDLRTKLCDLERANQTLKDEYDALQITFTALEGKLRKTTEENQELVTRWMAEKAQEANRLN
notes: Legends name it without Trx; source: E. coli BL21 (DE3), purified (Ni-NTA, Superdex 200)
For the molecule B3, the binding result (in the experiment with GST-tagged WIPI3Δ; in experiment [1]) was “binds” each time.

B4: ATG16L1(78–197) (domain or fragment, human, UniProt Q676U5 78-197, looked up)
chain: NDNQLQEMAQLRIKHQEELTELHKKRGELAQLVIDLNNQMQRKDREMQMNEAKIAECLQTISDLETECLDLRTKLCDLERANQTLKDEYDALQITFTALEGKLRKTTEENQELVTRWMAE
notes: as for B1
As to B4, in experiment [1], the binding result is listed as “binds”.

B5: ATG16L1(124–188) (domain or fragment, human, UniProt Q676U5 124-188, looked up)
chain: MQMNEAKIAECLQTISDLETECLDLRTKLCDLERANQTLKDEYDALQITFTALEGKLRKTTEENQ
notes: Parallel coiled-coil dimer in the crystal; also called ATG16L1 coiled-coil; source: E. coli BL21 (DE3), purified (Ni-NTA, Superdex 200)
With B5, in experiment [1], the binding result is on record as “binds”.

The record behind these values is publication PMC11727070, “Structure of the WIPI3/ATG16L1 Complex Reveals the Molecular Basis for the Recruitment of the ATG12~ATG5-ATG16L1 Complex by WIPI3” (Cells, 2024).
